Assay results taken from the supplement of paper PMC7877785.
± gives the uncertainty stated by the source.

Assay: self-splicing fitness, log relative to wild type (ln ratio); higher = more splicing; Tetrahymena group I intron in knt gene, E. coli kanamycin selection, DiMSum; sequences stand for … in CUCUCU…GGAGGGAAAAGUUAUCAGGCAUGCACCUGGUAGCUAGUCUUUAAACCAAUAGAUUGCAUCGGUUUAAAAGGCAAGACCGUCAAAUUGCGGGAAAGGGGUCAACAGCCGUUCAGUACCAAGUCUCAGGGGAAACUUUGAGAUGGCCUUGCAAAGGGUAUGGUAAUAAGCUGACGGACAUGGUCCUAACCACGCAGCCAAGUCCUAAGUCAACAGAUCUUCUGUUGAUAUGGAUGCAGUUCACAGACUAAAUGUCGGUCGGGGAAGAUGUAUUCUUCUCAUAAGAUAUAGUCGGACCUCUCCUUAAUGGGAGCUAGCGGAUGAAGUGAUGCAACACUGGAGCCGCUGGGAACUAAUUUGUAUGCGAAAGUAUAUUGAUUAGUUUUGGAGUACUCGUGGUCG
Procedure, shortened: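 Pooled colonies went to amplicon sequencing on an Illumina HiSeq 2500 after six replicate transformations. The plates were LB agar with 100 μg/mL carbenicillin, 50 μM IPTG and 0.2% rhamnose, with or without 25 μg/mL kanamycin, incubated overnight at 37°C or 30°C. The E. coli BL21(DE3) library had all eight P1ex-region intron nucleotides randomised, the intron placed in the knt kanamycin-resistance gene on pET-22b(+). DiMSum fitness is the error-weighted combination of replicate fold changes, kanamycin against none, normalised to wild type.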

Sequence | self-splicing fitness (ln) (37 °C) | self-splicing fitness (ln) (30 °C)
CUCAAGCAAUAUUACGCUCG | -0.979 ± 0.33 | –
UCCUAGCAAUAUUACGGUGA | 0.225 ± 0.067 | -0.297 ± 0.053
ACGCAGCAAUAUUACGUUGG | -1.91 ± 0.096 | -2.94 ± 0.082
CGAAAGCAAUAUUACGCGGG | -1.88 ± 0.19 | -2.77 ± 0.18
UUUGAGCAAUAUUACGGGAU | -3.24 ± 0.32 | -2.91 ± 0.2
GCCGAGCAAUAUUACGACAG | -2.16 ± 0.23 | -1.9 ± 0.22
AUUUAGCAAUAUUACGAGAG | -2.7 ± 0.3 | –
GGCCAGCAAUAUUACGAUGC | 0.00176 ± 0.11 | -0.639 ± 0.093
GCUUAGCAAUAUUACGGGAA | 0.196 ± 0.11 | -0.679 ± 0.12
AGCAAGCAAUAUUACGCAGC | -2.1 ± 0.35 | -2.98 ± 0.27
AUGGAGCAAUAUUACGGGAA | -2.33 ± 0.17 | -2.71 ± 0.2
CUACAGCAAUAUUACGCAUU | -2.83 ± 0.25 | –
CACGAGCAAUAUUACGAAAC | -1.68 ± 0.4 | -2.02 ± 0.36
UGCGAGCAAUAUUACGGUUU | -2.62 ± 0.34 | -3.14 ± 0.3
AUUGAGCAAUAUUACGUUCA | -0.11 ± 0.17 | -1.59 ± 0.17
UAUCAGCAAUAUUACGUCCA | -0.0388 ± 0.13 | -0.388 ± 0.12
AUUCAGCAAUAUUACGACAA | -0.889 ± 0.19 | -0.461 ± 0.15
GAGCAGCAAUAUUACGGUAG | -3.24 ± 0.24 | -4.29 ± 0.2
UAUUAGCAAUAUUACGUUAU | -2.2 ± 0.22 | -2.68 ± 0.19
UCCAAGCAAUAUUACGACAU | -2.31 ± 0.036 | -3.54 ± 0.021
AACCAGCAAUAUUACGUUUC | -2.92 ± 0.21 | -4.08 ± 0.17
AAUAAGCAAUAUUACGCAGU | -2.04 ± 0.19 | -3.08 ± 0.22

Sequence | self-splicing fitness (ln) (37 °C) | self-splicing fitness (ln) (30 °C)
CACUAGCAAUAUUACGGAGU | -2.14 ± 0.16 | -3.63 ± 0.18
UUAUAGCAAUAUUACGGCCG | -0.565 ± 0.37 | -0.763 ± 0.48
AGCUAGCAAUAUUACGGAGG | -1.33 ± 0.14 | -3.54 ± 0.16
UAAAAGCAAUAUUACGGUGU | -2.83 ± 0.15 | -3.4 ± 0.13
ACUUAGCAAUAUUACGGCGU | 0.491 ± 0.13 | -0.204 ± 0.088
CAUGAGCAAUAUUACGUUGG | -1.81 ± 0.15 | -2.69 ± 0.17
CGAAAGCAAUAUUACGUGCA | -1.13 ± 0.12 | -2.12 ± 0.12
UAUCAGCAAUAUUACGAAAA | -0.123 ± 0.17 | -0.436 ± 0.13
UGAAAGCAAUAUUACGGUGU | -2.02 ± 0.22 | -3.55 ± 0.18
ACGGAGCAAUAUUACGUCUA | -1.3 ± 0.16 | -3.96 ± 0.46
ACGCAGCAAUAUUACGUGCC | -0.959 ± 0.12 | -1.7 ± 0.11
AAAAAGCAAUAUUACGGAUG | -1.23 ± 0.095 | -2.17 ± 0.094
CAUCAGCAAUAUUACGCCAC | -2.22 ± 0.43 | -2.77 ± 0.46
ACUUAGCAAUAUUACGUGAA | -1.5 ± 0.12 | -2.94 ± 0.15
UCAUAGCAAUAUUACGCGAG | -0.957 ± 0.15 | -1.52 ± 0.15
ACACAGCAAUAUUACGGUCA | 0.0237 ± 0.077 | -0.813 ± 0.071
CAGCAGCAAUAUUACGAAGG | -1.05 ± 0.11 | -1.16 ± 0.11
ACACAGCAAUAUUACGCCAC | -2.66 ± 0.31 | -3.38 ± 0.33
GGUGAGCAAUAUUACGGCCU | -2.96 ± 0.43 | -2.79 ± 0.26
GUCUAGCAAUAUUACGGGCC | – | -3.14 ± 0.36
GGACAGCAAUAUUACGGAGU | -1.12 ± 0.11 | -1.61 ± 0.12
